In experiment [1] the target is T1, Recombinant gp120 from HIV-1 IIIB (HIV-1 IIIB, UniProt P04578). Nature of the experiment: cell-based or functional assay.
Experiment [2] has as its target T1, Recombinant gp120 from HIV-1 IIIB. As to the kind of experiment: SPR.

Substitutions are numbered along the chain they refer to.

Experimental findings from publication PMC2885190 (The Journal of Biological Chemistry, 2010) are described below.

B1: A12 mutant 1 (Tyr101 to Ala101) (VHH)
VHH: AVQLVESGGGLVQAGGSLRLSCTASGRISSSYDMGWFRQAPGKEREFVAAISWSGGTTDYADSVKGRFAISKDNAKNAVSLQMNSLKPEDTAVYYCAAKWRPLRYSDYPSNSDYADWGQGTQVTVSS
For the molecule B1, the “neutralisation of HIV-1 IIIB, TZM-bl luciferase assay, IC50” value (“neutralisation of HIV-1 IIIB” for short) in experiment [1] was below 1 mg/L.

B2: mutant 7 of A12/D7 (VHH)
VHH: B1 VHH with V12A, A24V, I28T, Y32H, D59N, Y108N, A115N
Take B2: in experiment [1], the “neutralisation of HIV-1 IIIB” value was below 1 mg/L.

B3: A12 VHH (VHH)
VHH: B1 VHH with A115Y
In the case of B3, in experiment [2], the dissociation constant Kd stood at 0.1 nM, the koff was 2.98e-05 s⁻¹ and the association rate constant (kon) was determined as 273000 M⁻¹ s⁻¹.

B4: A12 mutant 3 (Tyr101 to Gln101) (VHH)
VHH: B1 VHH with A115Q
As to B4, in experiment [1], the “neutralisation of HIV-1 IIIB” value is below 1 mg/L.

B5: D7 VHH (VHH)
VHH: B1 VHH with V12A, A24V, I28T, Y32H, D59N, Y108N, A115N, D116Y
On to B5, for which, in experiment [2], the equilibrium dissociation constant (Kd) stood at 2.9 nM, the koff is 0.000551 s⁻¹ and the on-rate constant (kon) worked out at 155000 M⁻¹ s⁻¹.

B6: A12 mutant 2 (Tyr101 to Asn101) (VHH)
VHH: B1 VHH with A115N
Consider B6, for which, in experiment [1], the “neutralisation of HIV-1 IIIB” value is below 1 mg/L.

Usually Kd stands for the concentration at which binding is half-saturated. Broadly, the koff is the rate constant with which the complex falls apart. In general, kon refers to the second-order rate constant of association.
